According to patent publication US5843750A, “Sorbitol kinase, process for producing the same, and substantially pure microorganism” (priority 1994, dated 1998):

Key:
[1] = Optimum pH/temperature, pH stability and heat stability of sorbitol kinase; format: physicochemical, Erwinia sp. SK-472-20
Description: One milliliter of a reaction mixture consisting of 0.2M Tris-HCl buffer solution (pH 8.5) 0.2 ml, 0.1M ATP 0.02 ml, 0.1M MgCl2 0.02 ml, 100 U/ml sorbitol-6-phosphate dehydrogenase (refer to referential example) 0.05 ml, 10 mM NAD 0.1 ml, 100 U/ml diaphorase (Asahi Chemical Ind. Co.) 0.05 ml, 0.25% NTB 0.1 ml, 1M sorbitol 0.1 ml, 10% Triton X-100 0.01 ml and distilled water 0.3 ml was pre-heated at 37° C. for 1 minute, and the enzyme solution 20 μl was added thereto, then the mixture was incubated for 10 minutes.
Reaction was terminated by adding 0.1N HCl 2 ml and optical density of the mixture was measured using 1.0 cm cell at 550 nm within 5 minutes (As). Also optical density of distilled water 20 μl in place of the enzyme solution was measured in the same manner as above as a blank test (Ab). Enzymatic activity is determined by difference in the absorption between the optical density of the enzyme solution (As) and the blank test (Ab), i.e. (As-Ab). A unit of enzyme activity is defined as an amount of enzyme which generate 1 μm of reduced NAD in one minutes at 37° C. and calculated by the following equation.
Optimum pH is measured by the above enzyme assay method. In FIG. 1, 100 mM phosphate buffer is used for pH 6.0-8.0 (-.largecircle.-); 100 mM Tris-HCl buffer for pH 7.0-9.0 (-.circle-solid.-); and 100 mM glycine-sodium hydroxide buffer for pH 9.0-10.5 (-.quadrature.-). Optimum pH is 8.5-9.5.
100 mM buffer solutions containing sorbitol kinase 0.5 U/ml were treated at 60° C. for 15 minutes, and remaining activity was measured by the above enzyme assay method. In FIG. 2, 100 mM acetate buffer is used for pH 4.5-6.0 (-.largecircle.-); 100 mM phosphate buffer for pH 6.0-8.0 (-.circle-solid.-); 100 mM Tris-HCl buffer for pH 7.0-8.5 (-.quadrature.-); and 100 mM glycine-sodium hydroxide buffer for pH 9.0-10.5 (-.box-solid.-). Most preferable stability is observed at pH 6.5-10.0.
Optimum temperature of the enzyme was measured by changing temperature range at 37° C.-60° C. according to the above assay method. Result is shown in FIG. 3, in which optimum temperature of the present enzyme is approx. 50° C.
100 mM Tris-HCl buffer solution (pH 8.5) containing sorbitol kinase 0.5 U/ml was treated at various temperatures for 15 minutes, and remaining activity was measured by the above enzyme assay method. Results are shown in FIG. 4 in which the enzyme is stable at least up to 60° C.

[2] = Physico-chemical properties of sorbitol kinase produced by the transformant; format: physicochemical, Erwinia sp. SK-472-20 gene expressed in E.coli; conditions: enzyme produced by transformant
[3] = Isoelectric point of sorbitol kinase (electrophoresis using carrier ampholytes); format: physicochemical, Erwinia sp. SK-472-20
Source text: 4.8±0.5 (electrophoresis using carrier ampholytes)

B1: sorbitol kinase: ATP-utilizing sorbitol kinase of Erwinia sp. SK-472-20, stable up to 60° C., amino acids 1 to 313 of SEQ ID NO: 1; also produced by E.coli transformant (protein)
chain: MRIGIDLGGTKTEVIALSEQGEQLFRHRLPTPRDDYHQTIETIARLVDMAEQATGQTGTVGMGIPGSISPYTGVVKNANSTWLNGQPFDKDLSQRLNREVRLANDANCLAVSEAIDGAAAGAQTVFAVIIGTGCGAGVALGGRAHIGGNGTAGEWGHNPLPWMDEDELKYRAEVPCYCGKQGCIETFISGTGFATDYHRLSGQPLKGNEIMRRVGEHDPVAELALSRYEMRLAKSLAHVVNILDPDVIVLGGGMSNVDRLYATVPNLVKQWVFGGECETPIRKRCTGTPAACAAPRGSGRYSHSPSPYVRGAG
Heat stability (stable up to) ([1]; 100 mM Tris-HCl pH 8.5, 0.5 U/ml, 15 minutes, remaining activity, FIG. 4): ≥ 60 °C | Optimum pH ([1]; 100 mM phosphate, Tris-HCl, glycine-sodium hydroxide buffers, FIG. 1): 8.5-9.5 | pH stability (most preferable stability) ([1]; 0.5 U/ml in 100 mM buffers, 60° C. for 15 minutes, remaining activity, FIG. 2): 6.5-10.0 | Optimum temperature ([1]; range 37° C.-60° C., FIG. 3): approx. 50 °C | Heat stability (stable up to) [2]: up to 60 °C | Isoelectric point [2]: 4.80±0.5 | Optimum pH [2]: 8.5-9.5 | pH stability [2]: 6.5-10.0 | Isoelectric point [3]: 4.8±0.5
